Measurements reported in patent publication CN114349860A (SHENZHEN GUEN BIOTECHNOLOGY CO LTD, dated 2022).

Target: T1, FGFR4蛋白 (FGFR4 protein antigen, bought from Sino Biological / 义翘神州) (human, UniProt P22455 22-369, limits assumed)
T1 construct: also called FGFR4蛋白抗原; 成纤维细胞生长因子受体4
T1 sequence (looked up): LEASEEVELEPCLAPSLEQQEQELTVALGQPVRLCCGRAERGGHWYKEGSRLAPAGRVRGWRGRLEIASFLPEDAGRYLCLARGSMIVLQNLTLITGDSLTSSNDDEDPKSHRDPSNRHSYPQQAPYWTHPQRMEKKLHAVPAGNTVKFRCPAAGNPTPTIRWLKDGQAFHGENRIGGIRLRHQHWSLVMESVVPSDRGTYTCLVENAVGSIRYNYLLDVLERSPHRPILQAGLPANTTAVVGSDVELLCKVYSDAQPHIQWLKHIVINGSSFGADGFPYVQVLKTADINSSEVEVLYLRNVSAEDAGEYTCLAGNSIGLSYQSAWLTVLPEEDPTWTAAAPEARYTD
Assay: BLI (OCTET K2), FGFR4 protein 10 ug/mL loaded on AHC sensors, 1B5 at 566.7-8.84 nM in solution

- Kd: < 1 pM
B1: 抗成纤维细胞生长因子受体4单克隆抗体1B5 (antibody, V domains shown)
VH: EVMLVQSGPELKKPGETVKISCKASGYTFTNFGMNWVKQAPGKGLKWMGWINTYTGEPTYADDFKGRFVFSLETSASTAYLQINNLKNEDTATYLCVRSSSGYVFDYWGQGTIVTVG
VL: DIVMTQSPSSLAVSAGEKVTMSCKSSQSLLNSRTRKNYLAWYQQKPGQSPKLLIYWASTRESGVPDRFTGSGSGTDFTLTISSVQAEDLAVYYCKQSYNLLTFGEGTKLEIT
notes: Mouse hybridoma antibody (BALB/c), purified from ascites on Protein G and detected with anti-mouse IgG second antibodies; also called 1B5抗体; FGFR4单克隆抗体
